Laboratory results: the DeepSol protein solubility set

Experiment: soluble on expression in E. coli; label from the status in PepcDB or PDB records

Sequence: MGSDKIHHHHHHMQKSLEKCSAIDYLIVLGGRHVNETIYLADERKRLPSLVKHHRASPGRLIRECEIPPLFDVIISGEAEKLIAEIGELFSRCNQSPATFIAENLDMKTEGRWIADFPRIDNTLVSDGVPLKRDELPSVVGTFGVTASFDVFEGRMTSHIFSDTGPGCIYDCNFCSERRSIAGNIQDIQGAPRRLYNQLNETVSAVMQDHPSKGASAFVEDSIFLSGSPVAITQLCQLLEKAPLEVIFGGQFTIDQILRKKDLIQRLAKCGLRYIFIGLETLEPQEIGGMSKDVDGNKQTWKDRFLQALDFMAANHIDCGCALLFGLGEAHISRRNLLNGLIKLKQETGQPITLSANWAVRHPLRSSRESENENYLRRGTPEGELLEYFHRFGEASLEYPLPNVCAPQVGEVKEIILLLNEFEASDA
- soluble on expression in E. coli: not soluble

Sequence: MSLGIATFAVVDLETTGNQLDYDEIIQIGITFVRQNQVIDTYHSMIRTDLEIPPFIQALTSIEEEMLVQAPYFNEVADDIYQLIKDCVFVAHNISFDLNFIKKAFEKCNIQFKPKRVMDTLELFKIAFPTDKSYQLSALAESHHIPLNNAHRADEDATTTAKLMIKAFEKFEQLHEGHHHHHH
- soluble on expression in E. coli: soluble

Sequence: MGSDKIHHHHHHMLYRTNPKNGDKLSILGFGAMRLPTKEDGSIDEEKATKMVRYAIDNGVNLVDTAWPYHMGECEPFLARALSEGYREKVKLSTKLPTWAVNTREDMDKFLNAQLEKLNTKQIDYYLLHTLTKASWAKIKDLGVIDFLNSAKEDGRIKNAGFSYHGMQEDFAPIVDDYNWDFCLIQYNYLDEKVQAGTKGLKYAASKGLGVFVMEPLRGGNLAGKTPEEVMEIWNKADKKRTTVEWALRWVWNHPEVTSVLSGMTEPEQLEENIKIAEEGYPNSLTQKELGLIEQAALKYGELLKINCTGCGYCMPCPANVDIPTCFGIYNNLHMFHDETQRFQYFATLSDIFWTNEPHFASQCTNCGICIEKCPQYIQIPEMLEKVVAEFEGPDNDEKMAMVKSVFKM
- soluble on expression in E. coli: not soluble

Sequence: MIVERVLYNIKDIDLEKLEVDFVDIEWYEVQKKILRKLSSNGIEVGIRNSNGEALKEGDVLWQEGNKVLVVRIPYCDCIVLKPQNMYEMGKTCYEMGNRHAPLFIDGDELMTPYDEPLMQALIKCGLSPYKKSCKLTTPLGGNLHGYSHSHSH
- soluble on expression in E. coli: not soluble

Sequence: MIELEVFPHRYLKAETTEKFLNRAYSLSKVQRVVIHGESLPNKVGYGPAKGTPVNHSEKKEITVKGVPVELMLQVGRLWVLLDDESEIEKIEEICKDLFPFGYRLTKGKFLRNDPTVSDFIKYGESAVDDIDKRLLGATDPRSKFDSSVTIIPKSEKNELEHHHHHH
- soluble on expression in E. coli: soluble

Sequence: MAHHHHHHMSYPYYTEFFVRFPKFKEREESERTVDPRIELEKKCQAKCVRPVNEYQSCVSRVQAKPEMKGNCLGQHEEMYMCIDHCVAKDLFNYLV
- soluble on expression in E. coli: not soluble

Sequence: MQKLTVGLIGNPNSGKTTLFNQLTGARQRVGNWAGVTVERKEGIFATTDHQVTLVDLPGTYSLTTISSQTSLDEQIACHYILSGDADMLINVVDASNLERNLYLTLQLLELGIPCVVALNMLDIAEKQQVRIDIDALAARLGCPVIPLVSTRGRGIEALKIALDRHQANSDLELVHYPQPLLREADLLAQQMSAQIPPRQRRWLGLQMLEGDIYSRAYAGDAADKLDIALANLSDEIDDPALHIADARYQTIAAICDAVSNTLTAEP
- soluble on expression in E. coli: soluble

Sequence: MKNLVGRFMRYVTFDTQSKPKNHHCPSSTGQKVFAQALYEELLELGLSDVSLDDHGYVMAKLPSNVNYPVPAIGFIAHMDTSPDACGKHVKPQIVEDYQGGDIALGKGDEVLSPIQYPDLHLLHGYNLITTDGTTLLGADNKAGIAEIITAMEILLADPSIPHGDISIAFTPDEEIGRGANHFDVAKFAAQWAYTIDGGPIGELEYENFNAATATVVCHGVNVHPGTAKDKMVNAMHIAAQFILMMPENETPQHTEGYQGFYHLSGATMSVAKSELKYILRDFEAIGLQARQALMQAKVAELNQQLKKGRVEVSFEQSYSNMKEKVEPHPHIIELAKQAMVACDVEPKIKPIRGGTDGARLSFMGLPCPNIFTGGYNFHGIHEFITIEGMEAAVQVIVKLAEKTALHYRQ
- soluble on expression in E. coli: not soluble

Sequence: KYNMGNANYRIQKELHNFLNNPPINCTLDVHPNNIRIWIVKYVGLENTIYANEVYKLKIIFPDDYPLKPPIVYFLQKPPKHTHVYSNGDICLSLLGDDYNPSLSISGLVLSIISMLSSAKEKKLP
- soluble on expression in E. coli: soluble

Sequence: MSLDDYTVRVRVPGGEWKDLFEYNVQVDMDRVQDASMVQFDMGSLVEVMVKKNNGTIHEVDIRPQVNDIRYVQYKNVITFMLDKPRYLSVEFNGDRLHNLHVFANPMETETYSKEEKGVMYFGPGVHRPKDLPNNQIRIPSNTTVYLAPGAVVKAKLWVDKAENVRIVGRGILDHPIRGIEITDSKNVVVDGITVINPDHYTVFGGGSVGVTIRNLKSFSCKGWSDGIDMMCCHDVLIDNVFMRNSDDCIALYNHRWNWWGGSDNITVQNSILWADIAHPINVGGHGDPESLIGETIENLIFRNIDILEHDEDDVPYQGCMAIDAGDRNRVKNILFEDIRVESIQEGKLFHINIRFNPKYDKQPGQSIDGVTFRNITYNGVGENPSLIKGLDKERMVRNITFENVVVNGEKIKDLKGFITNEYIEGIKIKEGHHHHHH
- soluble on expression in E. coli: not soluble

Sequence: MRIVVTRPQRSGERTAAKLEALGHAPVLLPLFHPIHHGERATSALSDPAGAIAVTSAEALRALATCEEQLAPYLSKPLFAVGGATAEAAQETGFEQIFTASGDALGLTVLVKQHRAFLTEEEPLLYLAGRPRGSVFEEGLAAAGIPFRTVDCYEMLPSDISENTLETTLLDTTADMVLLYSSEAARAFFHHVSADKYVTALAATKFICISRNVLFLVPEIFRANAKAAEEPSEAAMFELLHHNSGTLEHHHHHH
- soluble on expression in E. coli: soluble

Sequence: MSLGKEEEYRITNVKIFKDTPVWELALAVKNEKTRTIEKLAKENPELLNYQEPKYGATLLLWAVGMEKYKSAEALLKCGADPNIASTVDGMTPLYLAAGFSWIDNYAKKDPKFVKLLLKYNADPNITYGGNAIIEPGTSPLMNSIRCGIEKTKALVEAGAYINYKTKSGTTAAIKALLAGQNATLEALEYAHYLIVEKKAKVTDPYYPWLVYEENNIQELYPVDILRRWVYPLDSEEYRIKMEIVEEFARQGVNYWDTEIDKYTLEQIKKLYPDTWEEYIKRYEGHHHHHH
- soluble on expression in E. coli: soluble

Sequence: MGSDKIHHHHHHMKNLRLTLAVIAGKILIYISRLLGHQGTSLPGRIARKIYPRILRTLSTNIRREIVVITGTNGKTTTSNMLAEILQQQGYSLVHNRLGANMLSGITTAFIEKSDIYGSRRFDYALLETDEATVPLLLRETRPRLVLITNFFQDQLDRYGEMDHTIKLIQEAVKDQEIEMLLNADDPLTANFEAETGLKCRYYGFDGNSCDSNRSIDSREVRYCAFCGHPLEYEKYHYAQLGQYSCPQCHSCNPERDFTGQELEMSPDIELKVDGMALKSPYQGFHNAYNILAAVSLARLLGVEEENIKKAIASFQPQAGRMEAFFINGKRVVLALVKNPAALNQTLASLIYDPSRKNLFFALNDNAADGRDISWIWDADVELLEYENVMVEQIVCSGQRSGDIALRFKYAGFPQERIRIEAELPRAIELAVQGSAESSYILCSYTALFACQRILREMEKRSGAGEETEKAYQPQS
- soluble on expression in E. coli: not soluble

Sequence: MKCTECSHEAGVSSFRYLYNARIDAPITLRQCPQCQAWLAVDEMAGEARQRVDAGEAPWGKSAGIEGLAEDAR
- soluble on expression in E. coli: not soluble

Sequence: MSTFSLLRLPQKTLKNVILQMGHIELICTSLLSNKTKHFIREFCIFKASRFSIELNQSVQFKMFNNGRWSEYSFKNGMICITSFGIIQITMTFRTPQFNAGSWFNHFLCVLSPSKIESVTVTDAFDELRFQLVKKFLEKIQFMVLWIRTTSATSHMVRLFSEVLPVDQFWLSQDDRLNSSQFSALRPVLSKELETIFIDNRMPLNDLLITCSTAIHIIKSPLTDKEINVFLKHWMTGLKPELEHIYIEKSGVFNQTQLLDGINHDAPTDRKFKMYGNDAFRGIDLHLGQGIKATLVYENDFFHSKIHIASHNSKYISFE
- soluble on expression in E. coli: not soluble

Sequence: MSKRQSSLMSFFTKTPKSEKPEEEVKEKSVEEPKSLKNDTPKISNDSEKKVLKRSNSKTVSSPVKTPRNASKRPKVVVCSSSEGEDDDGDEDFEMKEAEEHESSDESEADENASDCEVVESPESTPQSTPKRGGKKKISKPLLAENTPKSVKMAGKSKKVIPDGEAVSMAGVLDKMDKIMDGEGERKRIVEKTTGAKNKAVELEPAERFDHESFDFLKPDKIRDGFKRPMSDPEYDPKTLWVPPDFHQKQTPGHRQWWTMKSQHFDTILLFKVGKFYETYHMDAVEVVRALNIAFMRGSYAHAGFPEHAASKFADQLMNHGYKVARIEQTETPQMLEERNQKTKTKEKVVRREVCRVTSNGTRTYGVLDGVDLGSASSTLDPTAKHLLAIKEFHNPETGKSSYGVCMIDTTTAHIRIGQFEDDDYRSQLRTLLANVIVVQAIVERGSISSTTKSIINGILFSVPVEHLLPKKQFMTAEDVVRIVSNEDYYGSDASEWPEVLKGMLEDSSILPKPSTDWQLALSAFGAIFWYLRDSLIDVDMLSMRNVTIYNSNSMENDQKKEKIDWNGKNLILDGTALENLNIVPNGRDSHLTSLYYVINKCSTPFGRRLLRSWLLQPTCDPKKLEQRQKAIKWLVSPDASSFMTTATATLKKIPDLDRLLQKIHTIGLKYRSEKHPDSRAIFFDTIKTNQKKIAELLAAIDGFKLCNKLRKEYIKVQKEGEGCELLDELLGNEQEMEEVDENIYFFEKMFDRSTAMKDGKIVPNAGCDEEYDEALNRVKEALNELNDYKDSVAKKYSCSIKFVDSGKVKYLLEMPENTKVSSSFELKSRRKGFIRYSTPDSEQLVAALDAVEKEKSKLGDDATRRVFEQFGHKNPIWLETVKLVSSFDVLTSLALFAKSSPFEMCMPEFDFNATDPYLIVDKGVHPCLALQSRNEVTQTTSFIANSTTMGASEAAVMLLTGPNMGGKSTLMRQTAVLAILAHIGSMVPAFSMRLTPIDRIFTRIGANDRIMCGESTFFIELKETDIMLKNATKHSLLLVDELGRGTSTFDGTAIASAVLQKISDDLACRTFFSTHYHSICDSFTNHPNVRLAHMKCVVDKENNEDPTMEDVTFLYELESGICPKSYGFYAAKLAGIDHQVVRNAYLESNKFASNLIIDPKIRHLVECARDDNFDVGELKRMIEAI
- soluble on expression in E. coli: not soluble

Sequence: MGSDKIHHHHHHDSVKTNTNPQQAIQGEWISYSESKINLPKTTSAADAHKLLDLTASTSEKIKFDKKKVTLATNEYDYKLGRQIIIGSYSYDYKLEHGQDILKFDTTSSDIGGNVYYRVGSKLEKEKTKEINDKEAKEKKSVTHLNEVWKAKTDIIEKSLKEAMIGTWSGHFKAVATTGQGVAWAPGMQTLTFDGGTNLSFHASSDSLTNFDQIVIHNAYASYQPNGILGLEPSDHIPVDPKKLLNIIKDLTAEQMFSRIKYIAFSYDVTTDTGTISQSFSPSELSYKNGKLSFDTALLITQCGDEGVQISGDVSKTE
- soluble on expression in E. coli: not soluble

Sequence: GSGRVSLNFKDPEAVRALTCTLLREDFGLSIDIPLERLIPTVPLRLNYIHWVEDLIGHQDSDKSTLRRGIDIGTGASCIYPLLGATLNGWYFLATEVDDMCFNYAKKNVEQNNLSDLIKVVKVPQKTLLMDALKEESEIIYDFCMCNPPFFANQLEAKGVNSRNPRRPPPSSVNTGGITEIMAEGGELEFVKRIIHDSLQLKKRLRWYSCMLGKKCSLAPLKEELRIQGVPKVTYTEFCQGRTMRWALAWSFYD
- soluble on expression in E. coli: soluble

Sequence: MSLKISLENVGCASQIGKRKENEDRFDFAQLTDEVLYFAVYDGHGGPAAADFCHTHMEKCIMDLLPKEKNLETLLTLAFLEIDKAFSSHARLSADATLLTSGTTATVALLRDGIELVVASVGDSRAILCRKGKPMKLTIDHTPERKDEKERIKKCGGFVAWNSLGQPHVNGRLAMTRSIGDLDLKTSGVIAEPETKRIKLHHADDSFLVLTTDGINFMVNSQEICDFVNQCHDPNEAAHAVTEQAIQYGTEDNSTAVVVPFGAWGKYKNSEINFSFSRSFASSGRWAEGHHHHHH
- soluble on expression in E. coli: soluble
